From the RNAGym collection of RNA variant scans (doi:10.7554/elife.90254)

B1: LINE1-mini (parent)
chain: GGCAGAGCUCAACACAGCGUGGCAAAGUGGCUGUGGCUAGACUGCC

Variants of: B1
Assay: self-cleavage, relative activity (ratio to wild type); higher = more cleavage; in vitro, sequencing; the parent is a self-cleaving ribozyme

Row | Variant | self-cleavage
1 | GACAGAGCUCCACACAGCGUGGCAAAGUGGCUGUGGCUAGACUGCC [G2A A11C] | 0.05
2 | GACAGAGCUCUACACAGCGUGGCAAAGUGGCUGUGGCUAGACUGCC [G2A A11U] | 0.12
3 | GACAGAGCUAAACACAGCGUGGCAAAGUGGCUGUGGCUAGACUGCC [G2A C10A] | 0.07
4 | GACAGAGCUGAACACAGCGUGGCAAAGUGGCUGUGGCUAGACUGCC [G2A C10G] | 0.11
5 | UGCAGAGCUCAACACAGCGUGGCAAAGUGGCCGUGGCUAGACUGCC [G1U U32C] | 0.08
6 | UGCAGAGCUCAACACAGCGUGGCAAAGUGGCAGUGGCUAGACUGCC [G1U U32A] | 0.06
7 | UGCAGAGCUCAACACAGCGUGGCAAAGUGGCGGUGGCUAGACUGCC [G1U U32G] | 0.05
8 | UGCAGAGCUCAACACAGCGUGGCAAAUUGGCUGUGGCUAGACUGCC [G1U G27U] | 0.25
9 | UGCAGAGCUCAACACAGCGUGGCAAAAUGGCUGUGGCUAGACUGCC [G1U G27A] | 0.36
10 | UGCAGAGCUCAACACAGCGUGGCAAACUGGCUGUGGCUAGACUGCC [G1U G27C] | 0.27
11 | UGCAGAGCUCAACACAGCGUGGCAAAGUGGCUGUUGCUAGACUGCC [G1U G35U] | 0.17
12 | UGCAGAGCUCAACACAGCGUGGCAAAGUGGCUGUAGCUAGACUGCC [G1U G35A] | 0.08
13 | UGCAGAGCUCAACACAGCGUGGCAAAGUGGCUGUCGCUAGACUGCC [G1U G35C] | 0.07
14 | GACAGAGCUCAACACAGCGUGGCAAAGUGGCUGUGGCUAGACUGCC [G2A] | 0.92
15 | UGCAGAGCUCAACACAGCGUGUCAAAGUGGCUGUGGCUAGACUGCC [G1U G22U] | 0.43
16 | UGCAGAGCUCAACACAGCGUGACAAAGUGGCUGUGGCUAGACUGCC [G1U G22A] | 0.25
17 | UGCAGAGCUCAACACAGCGUGCCAAAGUGGCUGUGGCUAGACUGCC [G1U G22C] | 0.23
18 | GACAGAGCUCAACACUGCGUGGCAAAGUGGCUGUGGCUAGACUGCC [G2A A16U] | 0.33
19 | GACAGAGCUCAACACCGCGUGGCAAAGUGGCUGUGGCUAGACUGCC [G2A A16C] | 0.16

Row | Variant | self-cleavage
20 | GACAGAGCUCAACACGGCGUGGCAAAGUGGCUGUGGCUAGACUGCC [G2A A16G] | 0.26
21 | UGCAGAGCUCAACACAGCGUGGCAAAGUGGCUAUGGCUAGACUGCC [G1U G33A] | 0.04
22 | UGCAGAGCUCAACACAGCGUGGCAAAGUGGCUCUGGCUAGACUGCC [G1U G33C] | 0.03
23 | UGCAGAGCUCAACACAGCGUGGCAAAGUGGCUUUGGCUAGACUGCC [G1U G33U] | 0.06
24 | UGCAGAGCUCAACACAGCGUGGCAAAGUGGCUGUGGCUAGACUGCU [G1U C46U] | 0.43
25 | UGCAGAGCUCAACACAGCGUGGCAAAGUGGCUGUGGCUAGACUGCG [G1U C46G] | 0.74
26 | UGCAGAGCUCAACACAGCGUGGCAAAGUGGCUGUGGCUAGACUGCA [G1U C46A] | 0.53
27 | UGCAGAGCUCAACACAGCGUUGCAAAGUGGCUGUGGCUAGACUGCC [G1U G21U] | 0.41
28 | UGCAGAGCUCAACACAGCGUCGCAAAGUGGCUGUGGCUAGACUGCC [G1U G21C] | 0.39
29 | UGCAGAGCUCAACACAGCGUAGCAAAGUGGCUGUGGCUAGACUGCC [G1U G21A] | 0.77
30 | UGCAGAGCUCAACACAGCGUGGCAAAGUGGCUGUGGCUAGACCGCC [G1U U43C] | 0.06
31 | UGCAGAGCUCAACACAGCGUGGCAAAGUGGCUGUGGCUAGACGGCC [G1U U43G] | 0.07
32 | UGCAGAGCUCAACACAGCGUGGCAAAGUGGCUGUGGCUAGACAGCC [G1U U43A] | 0.05
33 | UGCAGAGCUCAACACAGCGUGGCAAAGAGGCUGUGGCUAGACUGCC [G1U U28A] | 0.15
34 | UGCAGAGCUCAACACAGCGUGGCAAAGCGGCUGUGGCUAGACUGCC [G1U U28C] | 0.24
35 | UGCAGAGCUCAACACAGCGUGGCAAAGGGGCUGUGGCUAGACUGCC [G1U U28G] | 0.2
36 | UGCAGAGCCCAACACAGCGUGGCAAAGUGGCUGUGGCUAGACUGCC [G1U U9C] | 0.02
37 | UGCAGAGCACAACACAGCGUGGCAAAGUGGCUGUGGCUAGACUGCC [G1U U9A] | 0.03
38 | UGCAGAGCGCAACACAGCGUGGCAAAGUGGCUGUGGCUAGACUGCC [G1U U9G] | 0.03

Row | Variant | self-cleavage
39 | UGCAGAGCUCAACACAGCGUGGCAAAGUGGCUGCGGCUAGACUGCC [G1U U34C] | 0.06
40 | UGCAGAGCUCAACACAGCGUGGCAAAGUGGCUGGGGCUAGACUGCC [G1U U34G] | 0.06
41 | UGCAGAGCUCAACACAGCGUGGCAAAGUGGCUGAGGCUAGACUGCC [G1U U34A] | 0.05
42 | UGCAGAGCUCAACACAGCGUGGCAAAGUCGCUGUGGCUAGACUGCC [G1U G29C] | 0.2
43 | UGCAGAGCUCAACACAGCGUGGCAAAGUUGCUGUGGCUAGACUGCC [G1U G29U] | 0.38
44 | UGCAGAGCUCAACACAGCGUGGCAAAGUAGCUGUGGCUAGACUGCC [G1U G29A] | 0.44
45 | GACAGAGGUCAACACAGCGUGGCAAAGUGGCUGUGGCUAGACUGCC [G2A C8G] | 0.13
46 | GACAGAGAUCAACACAGCGUGGCAAAGUGGCUGUGGCUAGACUGCC [G2A C8A] | 0.61
47 | GACAGAGUUCAACACAGCGUGGCAAAGUGGCUGUGGCUAGACUGCC [G2A C8U] | 0.43
48 | UGCAGAGCUCAACACACCGUGGCAAAGUGGCUGUGGCUAGACUGCC [G1U G17C] | 0.05
49 | UGCAGAGCUCAACACAACGUGGCAAAGUGGCUGUGGCUAGACUGCC [G1U G17A] | 0.1
50 | UGCAGAGCUCAACACAUCGUGGCAAAGUGGCUGUGGCUAGACUGCC [G1U G17U] | 0.06
51 | GACAGAGCUCAACACAGCGUGGCUAAGUGGCUGUGGCUAGACUGCC [G2A A24U] | 0.86
52 | GACAGAGCUCAACACAGCGUGGCGAAGUGGCUGUGGCUAGACUGCC [G2A A24G] | 1.04
53 | GACAGAGCUCAACACAGCGUGGCCAAGUGGCUGUGGCUAGACUGCC [G2A A24C] | 1.16
54 | GACAGAGCUCAACUCAGCGUGGCAAAGUGGCUGUGGCUAGACUGCC [G2A A14U] | 0.37
55 | GACAGAGCUCAACCCAGCGUGGCAAAGUGGCUGUGGCUAGACUGCC [G2A A14C] | 0.15
56 | GACAGAGCUCAACGCAGCGUGGCAAAGUGGCUGUGGCUAGACUGCC [G2A A14G] | 0.81
